Laboratory results from patent US20250340902A1, “GENE THERAPY FOR BVES-RELATED DISORDERS” (OHIO STATE INNOVATION FOUNDATION, priority 2022, published 2025).

Assays:
[1] = biological target: Dystroglycan (Mus musculus) (UniProt Q62165); assay: anti-HA co-IP from muscle, MS; CTRL 0
[2] = biological target: Leucine-rich PPR motif-containing protein, mitochondrial (Mus musculus) (UniProt Q6PB66); assay: anti-HA co-IP from muscle, MS; CTRL 0
[3] = biological target: Actin-binding LIM protein 2 (Mus musculus) (UniProt Q8BL65); assay: anti-HA co-IP from muscle, MS; CTRL 0
[4] = biological target: Vitamin K-dependent protein C (Mus musculus) (UniProt P33587); assay: anti-HA co-IP from muscle, MS; CTRL 0
[5] = biological target: Fatty acid-binding protein, adipocyte (Mus musculus) (UniProt P04117); assay: anti-HA co-IP from muscle, MS; CTRL 0
[6] = biological target: Mannose-binding protein C (Mus musculus) (UniProt P41317); assay: anti-HA co-IP from muscle, MS; CTRL 0
[7] = biological target: Chloride channel protein 1 (Mus musculus) (UniProt Q64347); assay: anti-HA co-IP from muscle, MS; CTRL 0
[8] = biological target: N-alpha-acetyltransferase 50 (Mus musculus) (UniProt Q6PGB6); assay: anti-HA co-IP from muscle, MS; CTRL 0
Basigin (Mus musculus) = Basigin (Mus musculus) (UniProt P18572); assay: anti-HA co-IP from muscle, MS; CTRL 0
[9] = biological target: Transcription elongation factor A protein 3 (Mus musculus) (UniProt P23881); assay: anti-HA co-IP from muscle, MS; CTRL 3
[10] = biological target: Myosin light chain kinase 2, skeletal/cardiac muscle (Mus musculus) (UniProt Q8VCR8); assay: anti-HA co-IP from muscle, MS; CTRL 3
Nidogen-2 (Mus musculus) = Nidogen-2 (Mus musculus) (UniProt O88322); assay: anti-HA co-IP from muscle, MS; CTRL 3
[11] = biological target: 3-ketoacyl-CoA thiolase, mitochondrial (Mus musculus) (UniProt Q8BWT1); assay: anti-HA co-IP from muscle, MS; CTRL 3
[12] = biological target: Perilipin-4 (Mus musculus) (UniProt O88492); assay: anti-HA co-IP from muscle, MS; CTRL 3
Perilipin-4 (Mus musculus), sequence (O88492 whole entry): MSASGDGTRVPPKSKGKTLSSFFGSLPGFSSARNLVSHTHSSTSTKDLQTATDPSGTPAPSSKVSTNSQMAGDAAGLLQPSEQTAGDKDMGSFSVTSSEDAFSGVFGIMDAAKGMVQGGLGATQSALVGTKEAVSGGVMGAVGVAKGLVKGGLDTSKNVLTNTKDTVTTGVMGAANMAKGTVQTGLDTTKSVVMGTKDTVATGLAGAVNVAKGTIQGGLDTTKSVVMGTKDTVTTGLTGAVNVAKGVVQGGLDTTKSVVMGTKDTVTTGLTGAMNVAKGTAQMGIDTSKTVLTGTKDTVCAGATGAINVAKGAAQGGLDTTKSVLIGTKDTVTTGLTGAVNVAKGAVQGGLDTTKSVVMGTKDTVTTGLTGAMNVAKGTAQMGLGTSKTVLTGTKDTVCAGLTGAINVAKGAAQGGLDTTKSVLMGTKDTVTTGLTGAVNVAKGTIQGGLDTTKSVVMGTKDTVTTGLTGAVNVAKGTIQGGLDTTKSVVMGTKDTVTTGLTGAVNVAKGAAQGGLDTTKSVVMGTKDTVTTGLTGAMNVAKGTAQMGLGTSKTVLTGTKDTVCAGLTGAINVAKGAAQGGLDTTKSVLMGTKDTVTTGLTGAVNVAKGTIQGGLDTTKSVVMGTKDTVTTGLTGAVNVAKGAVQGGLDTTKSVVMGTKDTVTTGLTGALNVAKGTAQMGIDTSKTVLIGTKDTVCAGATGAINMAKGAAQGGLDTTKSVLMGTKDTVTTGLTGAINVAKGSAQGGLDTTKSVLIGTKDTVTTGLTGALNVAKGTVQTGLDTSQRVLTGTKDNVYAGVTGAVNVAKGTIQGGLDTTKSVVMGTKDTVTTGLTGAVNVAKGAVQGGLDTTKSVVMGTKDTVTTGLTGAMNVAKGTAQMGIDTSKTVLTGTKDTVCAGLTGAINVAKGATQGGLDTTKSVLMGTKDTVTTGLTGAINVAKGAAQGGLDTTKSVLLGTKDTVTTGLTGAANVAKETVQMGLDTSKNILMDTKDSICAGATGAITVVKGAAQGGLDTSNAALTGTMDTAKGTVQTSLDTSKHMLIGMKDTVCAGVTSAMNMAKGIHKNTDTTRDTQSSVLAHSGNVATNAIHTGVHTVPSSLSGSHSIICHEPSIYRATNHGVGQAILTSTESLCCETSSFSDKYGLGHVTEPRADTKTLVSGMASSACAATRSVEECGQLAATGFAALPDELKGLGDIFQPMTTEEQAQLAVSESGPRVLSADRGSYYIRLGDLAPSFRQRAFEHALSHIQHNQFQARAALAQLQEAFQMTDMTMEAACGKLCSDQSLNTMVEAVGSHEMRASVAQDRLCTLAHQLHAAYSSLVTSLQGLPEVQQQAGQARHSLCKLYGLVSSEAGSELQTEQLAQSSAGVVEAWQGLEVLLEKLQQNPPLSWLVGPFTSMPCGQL

[13] = biological target: Cytoplasmic dynein 1 heavy chain 1 (Mus musculus) (UniProt Q9JHU4); assay: anti-HA co-IP from muscle, MS; CTRL 3
[14] = biological target: Cullin-associated NEDD8-dissociated protein 2 (Mus musculus) (UniProt Q6ZQ73); assay: anti-HA co-IP from muscle, MS; CTRL 1
[15] = biological target: Glypican-1 (Mus musculus) (UniProt Q9QZF2); assay: anti-HA co-IP from muscle, MS; CTRL 1
[16] = biological target: Caveolae-associated protein 3 (Mus musculus) (UniProt Q91VJ2); assay: anti-HA co-IP from muscle, MS; CTRL 1
[17] = biological target: Caveolin-1 (Mus musculus) (UniProt P49817); assay: anti-HA co-IP from muscle, MS; CTRL 1
Caveolin-1 (Mus musculus), sequence (P49817 2-178 limits assumed): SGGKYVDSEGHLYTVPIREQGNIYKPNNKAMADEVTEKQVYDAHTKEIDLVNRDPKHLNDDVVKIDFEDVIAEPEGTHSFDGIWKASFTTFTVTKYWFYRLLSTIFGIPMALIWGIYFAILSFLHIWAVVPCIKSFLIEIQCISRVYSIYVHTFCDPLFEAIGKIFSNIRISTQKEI

Vinculin (Mus musculus) = Vinculin (Mus musculus) (UniProt Q64727); assay: anti-HA co-IP from muscle, MS; CTRL 1
Vinculin (Mus musculus), sequence (Q64727 whole entry): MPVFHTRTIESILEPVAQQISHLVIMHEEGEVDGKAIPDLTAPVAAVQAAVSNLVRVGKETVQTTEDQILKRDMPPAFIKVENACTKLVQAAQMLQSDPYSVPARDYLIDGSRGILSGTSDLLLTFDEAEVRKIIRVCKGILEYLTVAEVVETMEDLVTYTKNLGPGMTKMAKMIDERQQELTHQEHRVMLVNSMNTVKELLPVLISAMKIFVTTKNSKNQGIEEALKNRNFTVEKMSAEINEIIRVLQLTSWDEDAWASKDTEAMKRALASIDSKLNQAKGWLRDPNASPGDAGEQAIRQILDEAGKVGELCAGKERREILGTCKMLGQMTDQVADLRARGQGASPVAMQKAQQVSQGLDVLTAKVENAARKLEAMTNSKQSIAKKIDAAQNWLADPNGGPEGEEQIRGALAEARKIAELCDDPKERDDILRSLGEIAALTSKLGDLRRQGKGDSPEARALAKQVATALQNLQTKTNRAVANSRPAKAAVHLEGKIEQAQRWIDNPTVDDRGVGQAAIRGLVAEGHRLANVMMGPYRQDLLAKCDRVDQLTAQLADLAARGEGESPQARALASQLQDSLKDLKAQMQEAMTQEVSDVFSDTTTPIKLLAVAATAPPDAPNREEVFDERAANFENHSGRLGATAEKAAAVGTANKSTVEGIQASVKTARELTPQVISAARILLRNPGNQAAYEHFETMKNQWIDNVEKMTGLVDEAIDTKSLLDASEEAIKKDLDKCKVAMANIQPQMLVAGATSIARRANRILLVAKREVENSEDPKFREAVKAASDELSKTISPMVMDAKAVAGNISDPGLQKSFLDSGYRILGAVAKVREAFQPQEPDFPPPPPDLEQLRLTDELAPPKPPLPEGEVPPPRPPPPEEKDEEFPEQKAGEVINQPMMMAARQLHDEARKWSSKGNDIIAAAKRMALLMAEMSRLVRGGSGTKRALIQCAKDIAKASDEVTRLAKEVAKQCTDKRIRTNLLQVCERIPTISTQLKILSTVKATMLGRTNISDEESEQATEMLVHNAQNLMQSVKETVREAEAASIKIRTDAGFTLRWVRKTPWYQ

[18] = biological target: Alpha-sarcoglycan (Mus musculus) (UniProt P82350); assay: anti-HA co-IP from muscle, MS; CTRL 1
Alpha-sarcoglycan (Mus musculus), sequence (P82350 24-387 limits assumed): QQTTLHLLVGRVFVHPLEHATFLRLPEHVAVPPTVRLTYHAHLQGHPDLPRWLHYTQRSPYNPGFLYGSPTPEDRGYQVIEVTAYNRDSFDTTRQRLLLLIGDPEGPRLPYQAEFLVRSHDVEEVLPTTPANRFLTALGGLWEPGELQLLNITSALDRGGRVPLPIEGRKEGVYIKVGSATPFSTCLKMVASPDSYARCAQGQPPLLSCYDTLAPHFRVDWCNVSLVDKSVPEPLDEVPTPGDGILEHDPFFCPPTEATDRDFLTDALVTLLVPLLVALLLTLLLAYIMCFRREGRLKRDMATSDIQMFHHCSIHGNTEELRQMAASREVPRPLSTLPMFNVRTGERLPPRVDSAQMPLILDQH

[19] = biological target: Unconventional myosin-Ic (Mus musculus) (UniProt Q9WTI7); assay: anti-HA co-IP from muscle, MS; CTRL 1
[20] = biological target: Collagen alpha-2(IV) chain (Mus musculus) (UniProt P08122); assay: anti-HA co-IP from muscle, MS; CTRL 1
[21] = biological target: Alpha-1-syntrophin (Mus musculus) (UniProt Q61234); assay: anti-HA co-IP from muscle, MS; CTRL 1
[22] = biological target: Protein-cysteine N-palmitoyltransferase HHAT-like protein (Mus musculus) (UniProt Q9D1G3); assay: anti-HA co-IP from muscle, MS; CTRL 1
[23] = biological target: Ribosomal protein S6 kinase alpha-3 (Mus musculus) (UniProt P18654); assay: anti-HA co-IP from muscle, MS; CTRL 1
Ribosomal protein S6 kinase alpha-3 (Mus musculus), sequence (P18654 whole entry): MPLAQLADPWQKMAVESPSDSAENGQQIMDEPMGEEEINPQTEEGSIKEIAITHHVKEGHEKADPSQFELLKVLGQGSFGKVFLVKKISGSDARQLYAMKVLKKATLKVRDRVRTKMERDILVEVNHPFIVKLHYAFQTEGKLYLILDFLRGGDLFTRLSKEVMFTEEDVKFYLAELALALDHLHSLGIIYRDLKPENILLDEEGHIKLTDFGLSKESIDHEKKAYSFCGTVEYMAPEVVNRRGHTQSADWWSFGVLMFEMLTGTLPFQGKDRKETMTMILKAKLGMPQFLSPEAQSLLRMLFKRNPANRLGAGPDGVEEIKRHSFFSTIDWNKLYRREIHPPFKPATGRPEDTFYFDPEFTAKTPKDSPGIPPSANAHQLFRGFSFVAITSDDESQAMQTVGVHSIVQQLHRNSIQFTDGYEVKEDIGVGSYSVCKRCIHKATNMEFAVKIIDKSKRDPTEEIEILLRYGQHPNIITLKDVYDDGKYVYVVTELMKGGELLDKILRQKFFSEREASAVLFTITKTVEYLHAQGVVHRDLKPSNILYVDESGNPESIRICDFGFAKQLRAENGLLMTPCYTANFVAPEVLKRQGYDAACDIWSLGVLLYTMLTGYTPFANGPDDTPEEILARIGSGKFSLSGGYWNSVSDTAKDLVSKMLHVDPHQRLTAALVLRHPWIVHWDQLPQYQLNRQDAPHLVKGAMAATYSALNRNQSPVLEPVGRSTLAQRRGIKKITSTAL

[24] = biological target: Caveolae-associated protein 2 (Mus musculus) (UniProt Q63918); assay: anti-HA co-IP from muscle, MS; CTRL 1

Leucine-rich PPR motif-containing protein, mitochondrial (Mus musculus), sequence (Q6PB66 60-1392 limits assumed): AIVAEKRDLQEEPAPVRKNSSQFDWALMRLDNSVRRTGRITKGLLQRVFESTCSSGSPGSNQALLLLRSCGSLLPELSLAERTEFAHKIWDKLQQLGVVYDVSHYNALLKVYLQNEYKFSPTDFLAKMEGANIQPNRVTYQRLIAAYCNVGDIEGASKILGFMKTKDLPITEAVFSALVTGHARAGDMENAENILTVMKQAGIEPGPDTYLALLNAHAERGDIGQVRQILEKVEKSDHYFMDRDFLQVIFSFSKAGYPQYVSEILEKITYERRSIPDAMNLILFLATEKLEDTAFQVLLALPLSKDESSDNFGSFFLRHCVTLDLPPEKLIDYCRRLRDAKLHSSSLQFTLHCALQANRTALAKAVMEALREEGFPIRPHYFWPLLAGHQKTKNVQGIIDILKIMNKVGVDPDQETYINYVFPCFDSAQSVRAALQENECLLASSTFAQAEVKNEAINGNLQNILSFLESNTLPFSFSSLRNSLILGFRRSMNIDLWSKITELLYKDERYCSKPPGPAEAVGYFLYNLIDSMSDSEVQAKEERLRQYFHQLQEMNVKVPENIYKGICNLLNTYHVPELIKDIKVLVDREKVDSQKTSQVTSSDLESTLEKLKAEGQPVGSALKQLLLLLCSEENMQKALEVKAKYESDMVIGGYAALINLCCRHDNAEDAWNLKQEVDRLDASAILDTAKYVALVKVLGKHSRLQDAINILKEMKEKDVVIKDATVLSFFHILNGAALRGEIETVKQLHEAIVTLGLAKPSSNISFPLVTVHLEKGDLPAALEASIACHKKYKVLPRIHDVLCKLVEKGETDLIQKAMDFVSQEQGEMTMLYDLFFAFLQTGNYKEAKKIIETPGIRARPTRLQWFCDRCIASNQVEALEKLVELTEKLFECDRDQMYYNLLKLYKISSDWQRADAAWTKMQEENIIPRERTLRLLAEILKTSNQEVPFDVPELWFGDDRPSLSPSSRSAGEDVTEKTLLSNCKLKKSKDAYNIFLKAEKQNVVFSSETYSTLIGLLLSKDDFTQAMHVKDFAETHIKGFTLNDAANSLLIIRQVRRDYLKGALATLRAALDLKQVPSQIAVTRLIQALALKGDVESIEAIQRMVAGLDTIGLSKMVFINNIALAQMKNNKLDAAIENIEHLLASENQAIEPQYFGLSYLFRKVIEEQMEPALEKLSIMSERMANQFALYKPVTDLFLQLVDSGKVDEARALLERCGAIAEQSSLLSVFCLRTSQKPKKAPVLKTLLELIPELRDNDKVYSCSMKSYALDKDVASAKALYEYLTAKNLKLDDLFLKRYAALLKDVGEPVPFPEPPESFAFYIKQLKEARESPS

## human BVES fused with 3xHA tag (from UniProt Q8NE79 1-360)
[1]
  AAV9-BVES-HA (IP-MS count): 4
[2]
  AAV9-BVES-HA (IP-MS count): 8
[3]
  AAV9-BVES-HA (IP-MS count): 2
[4]
  AAV9-BVES-HA (IP-MS count): 2
[5]
  AAV9-BVES-HA (IP-MS count): 2
[6]
  AAV9-BVES-HA (IP-MS count): 2
[7]
  AAV9-BVES-HA (IP-MS count): 13
[8]
  AAV9-BVES-HA (IP-MS count): 2
Basigin (Mus musculus)
  AAV9-BVES-HA (IP-MS count): 4
[9]
  AAV9-BVES-HA (IP-MS count): 12
[10]
  AAV9-BVES-HA (IP-MS count): 9
Nidogen-2 (Mus musculus)
  AAV9-BVES-HA (IP-MS count): 12
[11]
  AAV9-BVES-HA (IP-MS count): 9
[12]
  AAV9-BVES-HA (IP-MS count): 11
[13]
  AAV9-BVES-HA (IP-MS count): 12
[14]
  AAV9-BVES-HA (IP-MS count): 16
[15]
  AAV9-BVES-HA (IP-MS count): 11
[16]
  AAV9-BVES-HA (IP-MS count): 11
[17]
  AAV9-BVES-HA (IP-MS count): 8
Vinculin (Mus musculus)
  AAV9-BVES-HA (IP-MS count): 5
[18]
  AAV9-BVES-HA (IP-MS count): 5
[19]
  AAV9-BVES-HA (IP-MS count): 7
[20]
  AAV9-BVES-HA (IP-MS count): 5
[21]
  AAV9-BVES-HA (IP-MS count): 11
[22]
  AAV9-BVES-HA (IP-MS count): 5
[23]
  AAV9-BVES-HA (IP-MS count): 20
[24]
  AAV9-BVES-HA (IP-MS count): 12
